Measurements taken from patent US20150004189A1 (published 2015).

How the values were obtained:
[1] = target: HLA DQ molecule DQB1*0503 (human); assay: inhibition of radiolabeled peptide binding to purified HLA class II
[2] = target: HLA DQ molecule DQB1*0602 (human); assay: as above
[3] = target: T1, HLA DP molecule DPB1*0201 (human); assay: competition vs radiolabeled peptide, purified HLA-DP
T1 chain 1: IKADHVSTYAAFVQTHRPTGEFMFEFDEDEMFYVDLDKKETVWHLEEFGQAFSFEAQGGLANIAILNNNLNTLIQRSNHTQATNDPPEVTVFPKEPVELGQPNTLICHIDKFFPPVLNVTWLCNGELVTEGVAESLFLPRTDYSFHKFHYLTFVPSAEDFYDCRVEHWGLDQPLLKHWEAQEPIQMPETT
T1 chain 2: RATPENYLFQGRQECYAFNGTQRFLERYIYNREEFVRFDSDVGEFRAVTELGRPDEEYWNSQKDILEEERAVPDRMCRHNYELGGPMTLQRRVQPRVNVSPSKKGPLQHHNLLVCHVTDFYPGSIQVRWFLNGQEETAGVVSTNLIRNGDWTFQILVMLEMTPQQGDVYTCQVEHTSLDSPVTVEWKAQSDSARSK

[4] = target: T2, HLA DP molecule DPB1*0401 (human); assay: as above
T2 chain 1: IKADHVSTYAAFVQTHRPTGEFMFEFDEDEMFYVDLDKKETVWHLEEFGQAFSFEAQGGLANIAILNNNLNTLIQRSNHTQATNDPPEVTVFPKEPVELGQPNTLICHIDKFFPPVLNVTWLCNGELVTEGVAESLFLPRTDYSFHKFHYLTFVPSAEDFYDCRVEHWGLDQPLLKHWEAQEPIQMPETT
T2 chain 2: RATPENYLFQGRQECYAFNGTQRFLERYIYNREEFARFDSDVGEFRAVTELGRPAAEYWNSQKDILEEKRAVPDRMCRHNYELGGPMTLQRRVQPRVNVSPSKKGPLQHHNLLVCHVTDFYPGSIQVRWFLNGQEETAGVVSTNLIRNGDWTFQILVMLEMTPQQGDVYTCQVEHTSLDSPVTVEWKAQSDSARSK

HLA-DP DPB1*0401 = target: T3, HLA-DP DPB1*0401 (human); assay: inhibition of radiolabeled peptide binding to purified HLA-DP
T3 chain 1: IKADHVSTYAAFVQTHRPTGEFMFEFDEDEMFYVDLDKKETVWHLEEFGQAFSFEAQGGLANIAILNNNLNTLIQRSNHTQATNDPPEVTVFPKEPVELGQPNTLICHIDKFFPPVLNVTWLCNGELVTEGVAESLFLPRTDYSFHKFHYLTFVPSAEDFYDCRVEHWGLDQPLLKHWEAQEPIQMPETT
T3 chain 2: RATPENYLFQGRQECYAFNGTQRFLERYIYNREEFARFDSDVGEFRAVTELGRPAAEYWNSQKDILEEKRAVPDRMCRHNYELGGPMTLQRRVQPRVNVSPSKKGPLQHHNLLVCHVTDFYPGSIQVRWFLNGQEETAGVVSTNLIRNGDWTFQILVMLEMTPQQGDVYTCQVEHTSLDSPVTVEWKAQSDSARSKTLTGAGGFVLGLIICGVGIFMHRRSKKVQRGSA

[5] = target: HLA-DP molecule DPB1*2001 (human); assay: as above
[6] = target: HLA-DP molecule DPB1*1401 (human); assay: as above
[7] = target: T4, HLA-DP molecule DPB1*0401 (human); assay: as above
T4 chain 1: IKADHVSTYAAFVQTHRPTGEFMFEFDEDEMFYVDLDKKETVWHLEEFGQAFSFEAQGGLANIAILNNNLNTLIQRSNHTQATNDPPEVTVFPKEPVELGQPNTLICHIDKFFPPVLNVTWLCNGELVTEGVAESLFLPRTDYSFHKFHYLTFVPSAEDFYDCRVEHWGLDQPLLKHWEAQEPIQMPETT
T4 chain 2: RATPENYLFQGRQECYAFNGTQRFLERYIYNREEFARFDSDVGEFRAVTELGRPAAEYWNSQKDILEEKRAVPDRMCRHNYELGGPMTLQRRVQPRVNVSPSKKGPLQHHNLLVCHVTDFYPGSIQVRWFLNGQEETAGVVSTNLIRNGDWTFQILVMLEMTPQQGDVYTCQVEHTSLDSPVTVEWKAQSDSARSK

Q: With GAYETYKFIPSLEAA [Pha a 5 peptide, position 201, GAYETYKFIPSLEAA (Peptide ID 3324.1433)] as the binder, how does the IC50 [1] read?
A: 358 nM

Q: And the IC50 [2]?
A: 846 nM

Q: How did the IC50 [3] turn out when DEYVEQVAQYKALPV [Fel d 1 1 peptide, position 41, DEYVEQVAQYKALPV (Peptide ID 3324.1049)] was run?
A: 1120 nM

Q: What about the IC50 [4] of the same binder?
A: 533 nM

Q: NALSVLDKIYTSPLC [Fel d 1 1 peptide, position 78, NALSVLDKIYTSPLC (Peptide ID 3324.1050)] was tested. Which IC50 [3] did it give?
A: 575 nM

Q: What about the IC50 [4] of the same binder?
A: 349 nM

Q: For AETCPIFYDVFFAVA [Fel d 1 2 peptide, position 21, AETCPIFYDVFFAVA (Peptide ID 3324.1056)], which IC50 [3] is on record?
A: 8.1 nM

Q: And the IC50 [4]?
A: 5.6 nM

Q: IFYDVFFAVANGNEL [Fel d 1 2 peptide, position 26, IFYDVFFAVANGNEL (Peptide ID 3324.1052)] was tested. Which IC50 [3] did it give?
A: 89 nM

Q: What about the IC50 [4] of the same binder?
A: 242 nM

Q: With NGNELLLDLSLTKVN [Fel d 1 2 peptide, position 36, NGNELLLDLSLTKVN (Peptide ID 3324.1055)] as the binder, how does the IC50 [4] read?
A: 590 nM

Q: With GSCWAFSGVAATESA [Der f 1 peptide, position 131, GSCWAFSGVAATESA (Peptide ID 3324.0670)] as the binder, how does the IC50 [3] read?
A: 9310 nM

Q: What about the IC50 [4] of the same binder?
A: 14400 nM

Q: For KALWIIFSQNMNIKL [Cup a 1 peptide 66-80 KALWIIFSQNMNIKL (Peptide ID 3324.0604)], which IC50 (HLA-DP DPB1*0401) is on record?
A: 1730 nM

Q: EKALWIIFSQNMNIK [Cup s 1 peptide 86-100 EKALWIIFSQNMNIK (Peptide ID 3324.0615)] was tested. Which IC50 (HLA-DP DPB1*0401) did it give?
A: 1540 nM

Q: How did the IC50 (HLA-DP DPB1*0401) turn out when ASVIPPARLFKAFVL [Que a 1 peptide 11-25 ASVIPPARLFKAFVL (Peptide ID 3324.1587)] was run?
A: 917 nM

Q: How did the IC50 (HLA-DP DPB1*0401) turn out when PARLFKAFVLDSDNL [Que a 1 peptide 16-30 PARLFKAFVLDSDNL (Peptide ID 3324.1585)] was run?
A: 52 nM

Q: For DIYNYMEPYVSKVDP [Dac g 4 peptide 1-15 DIYNYMEPYVSKVDP (Peptide ID 3324.0663)], which IC50 (HLA-DP DPB1*0401) is on record?
A: 23400 nM

Q: RYANPIAFFRKEPLK [Lol p 11 peptide 111-125 RYANPIAFFRKEPLK (Peptide ID 3324.1138)] was tested. Which IC50 (HLA-DP DPB1*0401) did it give?
A: 2060 nM

Q: For DGVWEIKSDKPLKGP [Lol p 2 peptide 51-65 DGVWEIKSDKPLKGP (Peptide ID 3324.1139)], which IC50 (HLA-DP DPB1*0401) is on record?
A: 5210 nM

Q: IKSDKPLKGPFNFRF [Lol p 2 peptide 56-70 IKSDKPLKGPFNFRF (Peptide ID 3324.1140)] was tested. Which IC50 (HLA-DP DPB1*0401) did it give?
A: 12300 nM

Q: Which results are given for MRNVFDDVVPADFKV [Lol p 2 peptide, position 76, MRNVFDDVVPADFKV (Peptide ID 3337.0030)]?
A: IC50 [5]: 82 nM; IC50 [6]: 24200 nM

Q: LWEVKSAKPLTGPMN [Lol p 3 peptide, position 51, LWEVKSAKPLTGPMN (Peptide ID 3337.0031)] was tested. Which IC50 [5] did it give?
A: 671 nM

Q: What about the IC50 [6] of the same binder?
A: 18600 nM

Q: For LIEKINAGFKAAVAA [Lol p 5 1 peptide, position 71, LIEKINAGFKAAVAA (Peptide ID 3324.1175)], which IC50 [6] is on record?
A: 2420 nM

Q: How did the IC50 [5] turn out when DAYVATLTEALRVIA [Lol p 5 1 peptide, position 151, DAYVATLTEALRVIA (Peptide ID 3324.1167)] was run?
A: 597 nM

Q: And the IC50 [6]?
A: 4400 nM

Q: What about the IC50 [7] of the same binder?
A: 515 nM

Q: Which IC50 [5] does the source give for DAFIAALTEALRVIA [Pha a 5 peptide, position 121, DAFIAALTEALRVIA (Peptide ID 3324.1432)] here?
A: 31 nM

Q: What about the IC50 [6] of the same binder?
A: 29700 nM

Q: Which IC50 [5] does the source give for DINVGFKAAVAAAAG [Poa p 5 peptide, position 56, DINVGFKAAVAAAAG (Peptide ID 3324.1571)] here?
A: 295 nM

Q: What about the IC50 [7] of the same binder?
A: 20700 nM

Q: With FKAAVAAAAGAPPAD [Poa p 5 peptide, position 61, FKAAVAAAAGAPPAD (Peptide ID 3324.1575)] as the binder, how does the IC50 [5] read?
A: 2940 nM

Q: What about the IC50 [7] of the same binder?
A: 28900 nM

Q: How did the IC50 [5] turn out when ATPEAKFDSFVAAFT [Poa p 5 peptide, position 121, ATPEAKFD5FVAAFT as printed in Table 8 (Peptide ID 3324.1570)] was run?
A: 3240 nM

Q: What about the IC50 [6] of the same binder?
A: 2770 nM

Q: What about the IC50 [7] of the same binder?
A: 4850 nM
